Assay results reported in article PMC5498717, “Linking functions: an additional role for an intrinsically disordered linker domain in the transcriptional coactivator CBP” (Scientific Reports, 2017).

Target: the molecule itself
Assay: cross-linking; BS3 0.25 mM, 15 min at RT in PBS with 1 mM DTT, proteins mixed about 1:1; SDS-PAGE, anti-His and anti-GST Western blots

B1: ZFP106-f (residues 1265-1521 of ZFP106), His-tagged (domain or fragment, human, UniProt Q9H2Y7 1265-1521, looked up)
chain: KFSVEQRNTRNRENSPSSQSAGLSSINKEGEEPTKGNSGSEACTSSFLRLSFASETPLEKEPHSPADQPEQQAESTLTSAETRGSKKKKKLRKKKSLRAAHVPENSDTEQDVLTVKPVRKVKAGKLIKGGKVTTSTWEDSRTGREQESVRDEPDSDSSLEVLEIPNPQLEVVAIDSSESGEEKPDSPSKKDIWNSTEQNPLETSRSGCDEVSSTSEIGTRYKDGIPVSVAETQTVISSIKGSKNSSEISSEPGDDDE
notes: The His tag is named for the cross-linking and detected by anti-His blot there and in the acetylation assays; also called wt ZFP106-f; His-tagged ZFP106-f
stoichiometry N: 2
